The target in one test is T1, IGP 2138 (hepatitis C virus).
T1 construct: also called WDMMMNW
Description: ELISA, biotinylated peptide on streptavidin plates (FIG. 9). Background: An ELISA detects its analyte on a solid surface through an enzyme-linked reagent.

The target in a further test is IGP 2242 (hepatitis C virus). Described as above.
A further test addresses IGP 2241 (hepatitis C virus). The test is described as above.
Another test has as its target IGP 3472 (hepatitis C virus). Kind of test: ELISA: biotinylated peptide on streptavidin-coated plate, serial dilution of 5D2; EC50 from Prism, shown as difference in log EC50 versus IGP 2254.
The target in a further test is T2, IGP 2254 (hepatitis C virus, SMILES …).
T2 peptide: Biotin-GGITGHRMAWDMMMNWS-NH2
Kind of test: BIAcore, antibody immobilized, peptide in solution. For orientation: In SPR one partner is held on a chip, and binding of the other changes the refractive index at the surface.

A further test addresses T3, IGP 2137 (hepatitis C virus).
T3 construct: also called RMAWDM
Kind of test: peptide ELISA (fine-mapping).

The target in test [1] is HCV E1 envelope glycoprotein, genotype 2a isolate JFH1, on retroviral pseudoparticles (hepatitis C virus genotype 2a, UniProt Q99IB8 192-383). Kind of test: cell-based or functional assay.
HCV E1 envelope glycoprotein, genotype 2a isolate JFH1, on retroviral pseudoparticles, sequence (Q99IB8 192-383 limits assumed): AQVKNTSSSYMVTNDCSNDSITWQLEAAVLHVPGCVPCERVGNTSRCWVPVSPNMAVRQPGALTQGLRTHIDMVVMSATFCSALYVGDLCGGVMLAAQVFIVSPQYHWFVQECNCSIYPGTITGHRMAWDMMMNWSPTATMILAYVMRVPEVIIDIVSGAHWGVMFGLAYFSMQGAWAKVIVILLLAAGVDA
Test [2] has as its target HCV E1 envelope glycoprotein, genotype 4a isolate UKN4a, on retroviral pseudoparticles (hepatitis C virus genotype 4a). Description: cell-based or functional assay.
The target in test [3] is HCV E1 envelope glycoprotein, genotype 1a strain H77, on retroviral pseudoparticles (hepatitis C virus genotype 1a strain H77, UniProt P27958 192-383). Description: cell-based or functional assay.
HCV E1 envelope glycoprotein, genotype 1a strain H77, on retroviral pseudoparticles, sequence (P27958 192-383 limits assumed): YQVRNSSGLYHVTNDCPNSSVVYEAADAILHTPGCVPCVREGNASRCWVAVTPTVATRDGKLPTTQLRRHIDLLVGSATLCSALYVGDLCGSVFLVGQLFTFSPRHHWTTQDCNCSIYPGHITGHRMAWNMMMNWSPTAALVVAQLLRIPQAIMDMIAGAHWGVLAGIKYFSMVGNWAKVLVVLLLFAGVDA

*: point of attachment. Biotin = O=C1N[C@H]2[C@H](CS[C@H]2CCCCC(=O)*)N1

B1: 5D2 (antibody, V domains shown)
VH: QVQLVESGGGVVQPGRSLRLSCVASGFTFSHYAMHWIRQAPGKGLEWVAVVSYDGSNKFYVDSVKGRFTISRDNSKNTVYLQMNSLRAVDTAVYYCARDPGVVTGSWSDSDGPPIHWGQGTLVTVSS
VL: DIVVTQSPDSLAVSLGERATITCKSSQSVFYSSNNKNYLGWYQQKPGQPPKLLIYWASTRASGVPDRFSGSGSGTDFTLTISSLQAEDVAVYYCQQYYTSWAFGQGTKVEIKR
notes: also called 5D2H9; IGH 534
The Kd is the free concentration of one partner at which half of the binding sites on the other are occupied at equilibrium, for simple one-to-one binding. The koff is a measure of how fast the partners let go of each other. In general, kon refers to a measure of how fast the partners come together. With B1, the binding result is listed as “no binding” with IGP 2138; “binds” with IGP 2242; “no binding” in the test with IGP 2241; “no binding” with IGP 3472; “no binding” with IGP 2137. This molecule came in with a Kd with IGP 2254 of 0.06 nM. Further, in the test with IGP 2254, the koff worked out at 9.46e-05 s⁻¹. The kon with IGP 2254 worked out at 1.71e+06 M⁻¹ s⁻¹. Also, the results for the “lowest concentration of antibody exhibiting at least 50% neutralization of HCVpp versus control” value in test [1], in [2] and in [3] were 6.2 µg/mL, over 25 µg/mL and 25 µg/mL, respectively.

The values above are taken from patent publication US20090104207A1 (published 2009).
